{"source": "paper PMC8104898", "biological_target": "fibronectin fragment FN7-10 (type III domains 7 to 10), wild type", "assay": "ELISA"}
{"substance": "recombinant integrin α5(N275A)β1 ectodomain, unclasped (from UniProt P08648;P05556) (complex)", "values": [{"measurement": "reduction of binding against the wild-type ectodomain", "value": 60, "unit": "%"}]}
